Test results reported in US20200190213A1 (REVITOPE, published 2020).

T1: Recombinant soluble EpCAM-His6 protein (UniProt P16422 24-265)
T1 construct: Coated on ELISA plates at 5 ug/ml; also called target antigen; not shown: His6 tag
T1 sequence (looked up): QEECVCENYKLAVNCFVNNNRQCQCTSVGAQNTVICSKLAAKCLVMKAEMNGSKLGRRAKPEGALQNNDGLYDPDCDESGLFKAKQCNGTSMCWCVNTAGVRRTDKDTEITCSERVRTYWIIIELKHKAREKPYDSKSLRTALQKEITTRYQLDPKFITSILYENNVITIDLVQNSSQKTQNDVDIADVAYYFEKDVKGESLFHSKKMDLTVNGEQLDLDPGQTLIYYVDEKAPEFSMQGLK

T2: Recombinant soluble EpCAM-His6 protein (UniProt P16422 24-265)
T2 chain: T1 sequence (looked up)

B1: CD3 Fc-fusion protein (murine IgG2a Fc) (Fc fusion)
chain: DGNEEMGGITQTPYKVSISGTTVILTCPQYPGSEILWQHNDKNIGGDEDDKNIGSDEDHLSLKEFSELEQSGYYVCYPRGSKPEDANFYLYLRARVCENCMEMD
notes: Soluble antigen of the bridging ELISA; not shown: murine IgG2a Fc
B2: TWICE278 (other)
heavy: EVQLLEQSGAELVRPGTSVKISCKASGYAFTNYWLGWVKQRPGHGLEWIGDIFPGSGNIHYNEKFKGKATLTADKSSSTAYMQLSSLTFEDSAVYFCARLRNWDEPMDYWGQGTTVTVSSASTKGPSVFPLAPSSKSTSGGTAALGCLVKDYFPEPVTVSWNSGALTSGVHTFPAVLQSSGLYSLSSVVTVPSSSLGTQTYICNVNHKPSNTKVDKKVEPKSCDKTHTGGGGSGGGGSQVQLVESGGGVVQPGRSLRLSCAASGFTFSSYTMHWVRQAPGKGLEWVTFISYDGNNKYYADSVKGRFTISRDNSKNTLYLQMNSLRAEDTAIYYCARTGWLGPFDYWGQGTLVTVSSGGGIEGRGGGDKTHTCPPCPAPELLGGPSVFLFPPKPKDTLMISRTPEVTCVVVDVSHEDPEVKFNWYVDGVEVHNAKTKPREEQYQSTYRVVSVLTVLHQDWLNGKEYKCKVSNKALPAPIEKTISKAKGQPREPQVYTLPPSRDELTKNQVKLTCLVKGFYPSDIAVEWESNGQPENNYKTTPPVLDSDGSFFLYSLLTVDKSRWQQGNVFSCSVMHEALHNHYTQKSLSLSPG
light: ELVMTQSPSSLTVTAGEKVTMSCKSSQSLLNSGNQKNYLTWYQQKPGQPPKLLIYWASTRESGVPDRFTGSGSGTDFTLTISSVQAEDLAVYYCQNDYSYPLTFGAGTKLEIKRTVAAPSVFIFPPSDEQLKSGTASVVCLLNNFYPREAKVQWKVDNALQSGNSQESVTEQDSKDSTYSLSSTLTLSKADYEKHKVYACEVTHQGLSSPVTKSFNRGECGGGGSGGGGSGGGGSQAVVTQEPSLTVSPGGTVTLTCRSSTGAVTASNYANWVQQKPGQAPRGLIGGTNKRAPWTPARFSGSLLGGKAALTITGAQAEDEADYYCALWYSNLWVFGGGTKLTVLGGGIEGRGGGDKTHTCPPCPAPELLGGPSVFLFPPKPKDTLMISRTPEVTCVVVDVSHEDPEVKFNWYVDGVEVHNAKTKPREEQYQSTYRVVSVLTVLHQDWLNGKEYKCKVSNKALPAPIEKTISKAKGQPREPQVYTLPPSRDELTKNQVSLTCLVSGFYPSDIAVEWESNGQPENNYKTTPPVLDSDGSFKLYSKLTVDKSRWQQGNVFSCSVMHEALHNHYTQKSLSLSPG
notes: One TWICE component: anti-EpCAM (Solitomab) Fab, Ipilimumab VH, SP34 VL, FXa-cleavable linkers, hetero-Fc; Uncleaved in the EpCAM ELISA; In the bridging ELISA it was tested alone, also after FXa cleavage; also called Ipilimumab VH SP34 VL Fc
B3: TWICE335 (other)
heavy: EVQLLEQSGAELVRPGTSVKISCKASGYAFTNYWLGWVKQRPGHCLEWIGDIFPGSGNIHYNEKFKGKATLTADKSSSTAYMQLSSLTFEDSAVYFCARLRNWDEPMDYWGQGTTVTVSSGGGSGGGGSQVQLVESGGGVVQPGRSLRLSCAASGFTFSSYTMHWVRQAPGKGLEWVTFISYDGNNKYYADSVKGRFTISRDNSKNTLYLQMNSLRAEDTAIYYCARTGWLGPFDYWGQGTLVTVSSGGGIEGRGGGDKTHTCPPCPAPELLGGPSVFLFPPKPKDTLMISRTPEVTCVVVDVSHEDPEVKFNWYVDGVEVHNAKTKPREEQYQSTYRVVSVLTVLHQDWLNGKEYKCKVSNKALPAPIEKTISKAKGQPREPQVYTLPPSRDELTKNQVKLTCLVKGFYPSDIAVEWESNGQPENNYKTTPPVLDSDGSFFLYSLLTVDKSRWQQGNVFSCSVMHEALHNHYTQKSLSLSPG
light: ELVMTQSPSSLTVTAGEKVTMSCKSSQSLLNSGNQKNYLTWYQQKPGQPPKLLIYWASTRESGVPDRFTGSGSGTDFTLTISSVQAEDLAVYYCQNDYSYPLTFGCGTKLEIKGGGGSGGGGSQAVVTQEPSLTVSPGGTVTLTCRSSTGAVTASNYANWVQQKPGQAPRGLIGGTNKRAPWTPARFSGSLLGGKAALTITGAQAEDEADYYCALWYSNLWVFGGGTKLTVLGGGIEGRGGGDKTHTCPPCPAPELLGGPSVFLFPPKPKDTLMISRTPEVTCVVVDVSHEDPEVKFNWYVDGVEVHNAKTKPREEQYQSTYRVVSVLTVLHQDWLNGKEYKCKVSNKALPAPIEKTISKAKGQPREPQVYTLPPSRDELTKNQVSLTCLVSGFYPSDIAVEWESNGQPENNYKTTPPVLDSDGSFKLYSKLTVDKSRWQQGNVFSCSVMHEALHNHYTQKSLSLSPG
notes: The anti-EpCAM targeting moiety is a disulfide-stabilized Fv (Cys at VH 44 and VL 100, Kabat); hetero-Fc dimerization domain; also called dsFv Ipilimumab VH SP34 VL Fc

How the values were obtained:
[1] = biological target: T3, TWICE277 plus TWICE278, combined, not cleaved; test: CD3 bridging ELISA on coated EpCAM
T3 construct: Two-component pair with intact hetero-Fc dimerization domains
Method: (§1) To test the domain swap and generation of functional paratopes (i.e., paired VH/VL domains) by TWICE pairs, a bridging ELISA assay was developed that measures the ability of TWICE pairs to bind target antigen and immune cell engaging molecules simultaneously. The schematic drawing in FIG. 9A illustrates the principle of this bridging ELISA. Briefly, the ELISA plates are coated with target antigen (recombinant soluble EpCAM, black hexagon) at a concentration of 5 μg/ml overnight. TWICE molecules can be activated by cleavage with FXa as described above, and then added to the plate at a serial dilution. The TWICE can bind to the target antigen with their target binding moiety, which is drawn as Fab (4 grey ovals) in FIG. 9A. Binding to the target antigen (EpCAM) on the plate brings the TWICEs in close proximity, which allows the immune cell binding domain and the complementary binding domain to undergo domain swap and form complete immune cell binding paratopes (black and white ovals in FIG. 9A). The functional complementation is measured by incubation with an antigen that is bound by the immune cell binding domain, such as CD3 (striped triangle in FIG. 9A). The antigen is provided as an Fc-fusion protein (murine IgG2a Fc), and can therefore be detected with an anti-mouse Fc secondary antibody. […]

[2] = biological target: T1, Recombinant soluble EpCAM-His6 protein; test: ELISA on coated EpCAM-His6
Text: TWICE molecules were engineered with the CD3 antibody SP34 and the CTLA4 antibody Ipilimumab and containing the hetero-Fc dimerization domain. In some examples, the anti-EpCAM antibody Solitomab was used as a Fab (TWICE277 and TWICE278), in other examples this antibody was used as a disulfide-stabilized Fv (dsFv, TWICE332 and TWICE335) by engineering a disulfide between the residue 44 of the VH and residue 100 of the VL (referring to Kabat numbering). The TWICE molecules were expressed and purified by Protein A affinity chromatography as described above, and their ability to bind to EpCAM was tested in an ELISA binding assay. Recombinant soluble EpCAM-His6 protein (produced in-house) was coated on ELISA plates at 5 μg/ml at 4° C. overnight and plates blocked with 1% BSA in PBS. Serial dilutions of TWICE were allowed to bind to EpCAM, and the bound TWICE were detected with a mouse anti-human Fc secondary (JDC-10 Abcam, ab99759).

[3] = biological target: T2, Recombinant soluble EpCAM-His6 protein; test: ELISA
[4] = biological target: B1; test: CD3 bridging ELISA on coated EpCAM, CD3-Fc detected with anti-mouse Fc
Method: as §1

[5] = biological target: T4, CTLA-4 Fc-fusion protein (murine IgG2a Fc) (murine, UniProt P16410 36-161 (human entry), limits assumed); test: CTLA-4 bridging ELISA on coated EpCAM, CTLA-4-Fc detected with anti-mouse Fc
T4 construct: Soluble antigen of the bridging ELISA; not shown: murine IgG2a Fc
Method: as §1

T4 sequence (P16410 36-161 limits assumed): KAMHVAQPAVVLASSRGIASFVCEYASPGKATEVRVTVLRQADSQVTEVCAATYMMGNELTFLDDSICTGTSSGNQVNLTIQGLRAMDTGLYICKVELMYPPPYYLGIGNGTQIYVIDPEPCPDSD

Row | binding result [1] | binding result [2] | EC50 [3] [nM] | binding result [4] | binding result [5] | Binder
1 | no binding | – | – | – | – | B1
2 | – | binds | 1.21 | no binding | no binding | B2
3 | – | binds | 1.04 | – | – | B3
